Bridge positions count the residues as written; N and C are the ends. Square brackets hold non-standard residues; d marks the D form. Ends that are not written are not given here. 1Nal = N[C@@H](Cc1cccc2ccccc12)C(=O)O; 2Nal = N[C@@H](Cc1ccc2ccccc2c1)C(=O)O; NMeR = CN[C@@H](CCCNC(=N)N)C(=O)O; β3hE = N[C@@H](CCC(=O)O)CC(=O)O; NMeK = CN[C@@H](CCCCN)C(=O)O; Pen = CC(C)(S)[C@H](N)C(=O)O; dNMeK = CN[C@H](CCCCN)C(=O)O
B1: SEQ ID NO 143 (peptide)
peptide: [Pen][NMeR]SDTL[Pen][2Nal]E
modifications: disulfide 1-7 (inferred); not fully specified (bridges); printed as Cyclo-[Pen-(N-Me-R)-S-D-T-L-Pen-(2-Nal)-E], disulfide

Biological target: α4β1 (R&D Systems #5668-A4) (UniProt P13612)
Test: α4β1-VCAM competition ELISA

IC50 [µM]	Binder
> 0.1	Ac-[Pen][NMeR]SDTL[Pen][1Nal][dE][dK]-NH2 (disulfide 1-7 (inferred); also: homodimer via DIG linker) [SEQ ID NO 32]
> 0.1	Ac-[Pen][NMeR]SDTL[Pen][1Nal][dE][dNMeK]-NH2 (disulfide 1-7 (inferred); also: homodimer via DIG linker) [SEQ ID NO 38]
> 1	Ac-[Pen][NMeR]SDTL[Pen][2Nal][b‑H‑E]-NH2 (disulfide 1-7 (inferred)) [SEQ ID NO 155]
> 0.1	Ac-[Pen][NMeR]SDTL[Pen][2Nal]E[dNMeK]-NH2 (disulfide 1-7 (inferred); also: homodimer via DIG linker) [SEQ ID NO 41]
> 0.5	Ac-[Pen][NMeR]SDTL[Pen][1Nal][β3hE][NMeK]-NH2 (disulfide 1-7 (inferred); also: homodimer via DIG) [SEQ ID NO 142]
> 0.1	Ac-[Pen][NMeR]SDTL[Pen][1Nal]E[dNMeK]-NH2 (disulfide 1-7 (inferred); also: homodimer via DIG linker) [SEQ ID NO 44]

Biological target: rh integrin α4β7 (R&D Systems #5397-A30) (human) (UniProt P13612)
Test: α4β7-MAdCAM competition ELISA

IC50 [µM]	Binder
> 0.01	Ac-[Pen][NMeR]SDTL[Pen][2Nal][dE][dK]-NH2 (disulfide 1-7 (inferred)) [SEQ ID NO 9]
< 0.01	Ac-[Pen][NMeR]SDTL[Pen][1Nal][dE][dK]-NH2 (disulfide 1-7 (inferred); also: homodimer via DIG linker) [SEQ ID NO 32]
< 0.01	Ac-[Pen][NMeR]SDTL[Pen][1Nal][dE][dNMeK]-NH2 (disulfide 1-7 (inferred); also: homodimer via DIG linker) [SEQ ID NO 38]
< 0.01	Ac-[Pen][NMeR]SDTL[Pen][2Nal]E[dNMeK]-NH2 (disulfide 1-7 (inferred); also: homodimer via DIG linker) [SEQ ID NO 41]
> 0.01	Ac-[Pen][NMeR]SDTL[Pen][2Nal][dE][dNMeK]-NH2 (disulfide 1-7 (inferred)) [SEQ ID NO 13]
0.25	B1
> 0.01	Ac-[Pen][NMeR]SDTL[Pen][2Nal]E[NMeK]-NH2 (disulfide 1-7 (inferred); also: homodimer via DIG) [SEQ ID NO 138]
< 0.01	Ac-[Pen][NMeR]SDTL[Pen][1Nal][β3hE][NMeK]-NH2 (disulfide 1-7 (inferred); also: homodimer via DIG) [SEQ ID NO 142]
< 0.01	Ac-[Pen][NMeR]SDTL[Pen][1Nal]E[dNMeK]-NH2 (disulfide 1-7 (inferred); also: homodimer via DIG linker) [SEQ ID NO 44]

Biological target: α4β7 integrin on human cells (human, UniProt P13612 34-1032; P26010 20-798)
Test: cell-based or functional assay

α4β7 cell (Hu) IC50 [µM]	PBMC IC50 [µM]	Binder
> 0.1		Ac-[Pen][NMeR]SDTL[Pen][2Nal][dE][dK]-NH2 (disulfide 1-7 (inferred)) [SEQ ID NO 9]
> 0.01		Ac-[Pen][NMeR]SDTL[Pen][1Nal][dE][dK]-NH2 (disulfide 1-7 (inferred); also: homodimer via DIG linker) [SEQ ID NO 32]
≤ 0.01		Ac-[Pen][NMeR]SDTL[Pen][1Nal][dE][dNMeK]-NH2 (disulfide 1-7 (inferred); also: homodimer via DIG linker) [SEQ ID NO 38]
> 0.025		Ac-[Pen][NMeR]SDTL[Pen][2Nal][b‑H‑E]-NH2 (disulfide 1-7 (inferred)) [SEQ ID NO 155]
≤ 0.01		Ac-[Pen][NMeR]SDTL[Pen][2Nal]E[dNMeK]-NH2 (disulfide 1-7 (inferred); also: homodimer via DIG linker) [SEQ ID NO 41]
≤ 0.01		Ac-[Pen][NMeR]SDTL[Pen]WE(OMe)[dK]-NH2 (disulfide 1-7 (inferred); also: homodimer linked by DIG) [SEQ ID NO 86]
> 0.1		Ac-[Pen][NMeR]SDTL[Pen][2Nal][dE][dNMeK]-NH2 (disulfide 1-7 (inferred)) [SEQ ID NO 13]
> 10		B1
> 0.01		Ac-[Pen][NMeR]SDTL[Pen][2Nal]E[NMeK]-NH2 (disulfide 1-7 (inferred); also: homodimer via DIG) [SEQ ID NO 138]
≤ 0.01	> 0.05	Ac-[Pen][NMeR]SDTL[Pen][1Nal][β3hE][NMeK]-NH2 (disulfide 1-7 (inferred); also: homodimer via DIG) [SEQ ID NO 142]
≤ 0.01		Ac-[Pen][NMeR]SDTL[Pen][1Nal]E[dNMeK]-NH2 (disulfide 1-7 (inferred); also: homodimer via DIG linker) [SEQ ID NO 44]

Biological target: α4β7 integrin on mouse TK1 cells (mouse, UniProt Q00651 41-1039; P26011 20-806)
Test: cell-based or functional assay

Chain of α4β7 integrin on mouse TK1 cells (Q00651 41-1039, chain 1 of 2): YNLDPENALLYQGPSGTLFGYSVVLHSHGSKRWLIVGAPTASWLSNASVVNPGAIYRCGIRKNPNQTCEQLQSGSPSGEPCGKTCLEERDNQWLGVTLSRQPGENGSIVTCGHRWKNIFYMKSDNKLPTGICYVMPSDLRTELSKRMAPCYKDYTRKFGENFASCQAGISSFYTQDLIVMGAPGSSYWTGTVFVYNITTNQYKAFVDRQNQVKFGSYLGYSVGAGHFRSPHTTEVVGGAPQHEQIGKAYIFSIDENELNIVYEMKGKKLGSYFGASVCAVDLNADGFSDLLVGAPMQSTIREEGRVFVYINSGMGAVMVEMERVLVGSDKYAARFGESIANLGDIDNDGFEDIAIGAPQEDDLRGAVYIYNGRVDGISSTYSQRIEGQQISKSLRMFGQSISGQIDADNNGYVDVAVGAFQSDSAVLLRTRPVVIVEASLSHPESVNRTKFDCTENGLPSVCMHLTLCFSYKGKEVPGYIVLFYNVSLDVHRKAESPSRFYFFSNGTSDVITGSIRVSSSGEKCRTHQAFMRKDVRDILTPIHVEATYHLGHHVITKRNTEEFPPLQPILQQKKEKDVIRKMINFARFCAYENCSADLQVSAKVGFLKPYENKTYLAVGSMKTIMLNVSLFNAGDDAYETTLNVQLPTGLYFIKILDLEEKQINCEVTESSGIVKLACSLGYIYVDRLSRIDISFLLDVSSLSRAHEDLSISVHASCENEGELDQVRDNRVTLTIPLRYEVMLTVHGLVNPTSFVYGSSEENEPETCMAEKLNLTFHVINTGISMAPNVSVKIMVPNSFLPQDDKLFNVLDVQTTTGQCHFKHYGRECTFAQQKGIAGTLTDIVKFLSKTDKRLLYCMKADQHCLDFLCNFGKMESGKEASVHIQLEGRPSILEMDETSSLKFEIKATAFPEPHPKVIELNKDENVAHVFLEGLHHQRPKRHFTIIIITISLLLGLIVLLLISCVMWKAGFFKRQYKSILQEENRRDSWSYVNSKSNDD
Chain of α4β7 integrin on mouse TK1 cells (P26011 20-806, chain 2 of 2): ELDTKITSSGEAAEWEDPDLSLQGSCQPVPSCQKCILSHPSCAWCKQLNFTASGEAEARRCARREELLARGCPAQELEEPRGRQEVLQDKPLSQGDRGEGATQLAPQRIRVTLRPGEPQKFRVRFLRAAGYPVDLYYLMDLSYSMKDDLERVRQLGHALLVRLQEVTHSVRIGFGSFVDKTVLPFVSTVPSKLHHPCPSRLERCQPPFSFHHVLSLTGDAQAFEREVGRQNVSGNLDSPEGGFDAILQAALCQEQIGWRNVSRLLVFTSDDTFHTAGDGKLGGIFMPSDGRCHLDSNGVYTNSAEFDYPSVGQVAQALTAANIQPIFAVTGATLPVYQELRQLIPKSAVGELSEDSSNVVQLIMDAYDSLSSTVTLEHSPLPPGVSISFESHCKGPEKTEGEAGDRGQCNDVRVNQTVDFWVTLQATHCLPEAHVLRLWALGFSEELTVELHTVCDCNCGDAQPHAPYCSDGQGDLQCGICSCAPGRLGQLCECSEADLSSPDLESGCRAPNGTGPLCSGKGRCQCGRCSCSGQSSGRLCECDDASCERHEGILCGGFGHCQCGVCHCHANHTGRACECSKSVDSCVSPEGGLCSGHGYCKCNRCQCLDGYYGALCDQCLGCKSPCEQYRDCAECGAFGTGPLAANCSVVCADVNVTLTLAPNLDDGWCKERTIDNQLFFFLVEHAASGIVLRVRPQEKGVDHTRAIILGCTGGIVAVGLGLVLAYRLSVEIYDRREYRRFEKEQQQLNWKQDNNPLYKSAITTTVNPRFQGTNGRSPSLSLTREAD

α4β7 cell(Mu) IC50 [µM]	Binder
> 0.025	Ac-[Pen][NMeR]SDTL[Pen][2Nal][b‑H‑E]-NH2 (disulfide 1-7 (inferred)) [SEQ ID NO 155]
≤ 0.01	Ac-[Pen][NMeR]SDTL[Pen]WE(OMe)[dK]-NH2 (disulfide 1-7 (inferred); also: homodimer linked by DIG) [SEQ ID NO 86]
≤ 0.01	Ac-[Pen][NMeR]SDTL[Pen][1Nal]E[dNMeK]-NH2 (disulfide 1-7 (inferred); also: homodimer via DIG linker) [SEQ ID NO 44]

From patent US20160159862A1 (PROTAGONIST THERAPEUTICS, published 2016)
